PMC5928113, “Properties of the ternary complex formed by yeast eIF4E, p20 and mRNA” (Scientific Reports, 2018)

Experiments:
[1] = biological target: T1, eIF4E (untagged, co-expressed with p20);His6x-p20 6x mutant R55L;R56L;R57L;H60L;H61L;H62L (Saccharomyces cerevisiae;Saccharomyces cerevisiae) (UniProt P07260+P12962); assay: EMSA; conditions: 5' m7GpppG cap (Vaccinia Capping System); Buffer A: 10 mM sodium phosphate pH 7.5, 100 mM NaCl, 2.5 mM MgCl2, 1 mM DTT, 0.05% NP40; MST at 25 C (proteins for capped RNA MST RED-tris-NTA labeled in …)
T1 sequence 1: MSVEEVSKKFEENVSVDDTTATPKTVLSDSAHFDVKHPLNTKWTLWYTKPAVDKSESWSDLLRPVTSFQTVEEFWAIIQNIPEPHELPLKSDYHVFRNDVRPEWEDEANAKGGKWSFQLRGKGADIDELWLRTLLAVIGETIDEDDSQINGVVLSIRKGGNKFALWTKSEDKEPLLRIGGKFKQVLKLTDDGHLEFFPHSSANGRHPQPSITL
T1 sequence 2: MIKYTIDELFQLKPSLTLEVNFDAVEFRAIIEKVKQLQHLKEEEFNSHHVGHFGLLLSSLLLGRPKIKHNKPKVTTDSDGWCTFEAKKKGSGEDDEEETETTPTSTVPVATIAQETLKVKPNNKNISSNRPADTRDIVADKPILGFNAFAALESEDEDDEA

[2] = biological target: T2, eIF4E (untagged, co-expressed with p20);His6x-p20 WT (Saccharomyces cerevisiae;Saccharomyces cerevisiae) (UniProt P07260+P12962); assay: EMSA; conditions: 5' m7GpppG cap (Vaccinia Capping System); Buffer A: 10 mM sodium phosphate pH 7.5, 100 mM NaCl, 2.5 mM MgCl2, 1 mM DTT, 0.05% NP40; MST at 25 C (proteins for capped RNA MST RED-tris-NTA labeled in …)
T2 sequence 1: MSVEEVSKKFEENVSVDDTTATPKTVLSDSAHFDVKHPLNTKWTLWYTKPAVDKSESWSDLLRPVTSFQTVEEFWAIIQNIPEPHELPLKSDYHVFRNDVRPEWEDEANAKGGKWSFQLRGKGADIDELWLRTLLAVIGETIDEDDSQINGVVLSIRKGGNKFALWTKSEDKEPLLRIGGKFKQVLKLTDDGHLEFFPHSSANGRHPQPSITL
T2 sequence 2: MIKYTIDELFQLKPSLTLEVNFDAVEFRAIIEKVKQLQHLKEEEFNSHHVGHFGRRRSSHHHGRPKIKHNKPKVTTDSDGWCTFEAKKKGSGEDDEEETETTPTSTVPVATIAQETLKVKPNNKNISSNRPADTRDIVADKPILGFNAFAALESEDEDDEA

[3] = biological target: T3, His6x-eIF4E;p20 N-terminal 18aa peptide (Saccharomyces cerevisiae;Saccharomyces cerevisiae) (UniProt P07260+P12962); assay: MST; conditions: equimolar 18aa p20 peptide; 5' m7GpppG cap (Vaccinia Capping System); Buffer A: 10 mM sodium phosphate pH 7.5, 100 mM NaCl, 2.5 mM MgCl2, 1 mM DTT, 0.05% NP40; MST at 25 C (proteins for capped RNA MST RED-tris-NTA labeled in …)
T3 sequence 1: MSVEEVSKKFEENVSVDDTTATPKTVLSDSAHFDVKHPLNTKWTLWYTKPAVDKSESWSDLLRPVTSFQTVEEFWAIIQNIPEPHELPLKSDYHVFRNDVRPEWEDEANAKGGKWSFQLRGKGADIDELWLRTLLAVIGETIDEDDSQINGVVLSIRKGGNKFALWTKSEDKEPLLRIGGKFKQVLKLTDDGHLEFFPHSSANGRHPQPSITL
T3 sequence 2: MIKYTIDELFQLKPSLTL

[4] = biological target: T1, eIF4E (untagged, co-expressed with p20);His6x-p20 6x mutant R55L;R56L;R57L;H60L;H61L;H62L (Saccharomyces cerevisiae;Saccharomyces cerevisiae); assay: MST; conditions: 5' m7GpppG cap (Vaccinia Capping System); Buffer A: 10 mM sodium phosphate pH 7.5, 100 mM NaCl, 2.5 mM MgCl2, 1 mM DTT, 0.05% NP40; MST at 25 C (proteins for capped RNA MST RED-tris-NTA labeled in …)
[5] = biological target: T2, eIF4E (untagged, co-expressed with p20);His6x-p20 WT (Saccharomyces cerevisiae;Saccharomyces cerevisiae); assay: MST; conditions: 5' m7GpppG cap (Vaccinia Capping System), Buffer A: 10 mM sodium phosphate pH 7.5, 100 mM NaCl, 2.5 mM MgCl2, 1 mM DTT, 0.05% NP40, MST at 25 C (proteins for capped RNA MST RED-tris-NTA labeled in …)
[6] = biological target: T4, eIF4E (untagged, co-expressed with p20);His6x-p20 WT (Saccharomyces cerevisiae;Saccharomyces …, UniProt P07260;P12962 1-213;1-161, |); assay: EMSA; Buffer A: 10 mM sodium phosphate pH 7.5, 100 mM NaCl, 2.5 mM MgCl2, 1 mM DTT, 0.05% NP40; MST at 25 C (proteins for capped RNA MST RED-tris-NTA labeled in buffer B: 20 mM HEPES-KOH pH 7.5, 50 mM NaCl, 1 mM DTT); EMSA 1.5% agarose, 1x TBE, temperature not stated; conditions: protein: recombinant;recombinant; tags: ;N-terminal His6x; copies: 1;1; label: 3' FAM
T4 sequence 1: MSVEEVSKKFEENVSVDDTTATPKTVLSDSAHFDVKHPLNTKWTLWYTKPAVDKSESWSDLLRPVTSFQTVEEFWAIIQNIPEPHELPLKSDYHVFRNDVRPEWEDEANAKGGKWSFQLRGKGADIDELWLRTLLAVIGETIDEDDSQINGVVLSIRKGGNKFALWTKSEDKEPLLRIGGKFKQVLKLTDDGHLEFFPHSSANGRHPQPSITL
T4 sequence 2: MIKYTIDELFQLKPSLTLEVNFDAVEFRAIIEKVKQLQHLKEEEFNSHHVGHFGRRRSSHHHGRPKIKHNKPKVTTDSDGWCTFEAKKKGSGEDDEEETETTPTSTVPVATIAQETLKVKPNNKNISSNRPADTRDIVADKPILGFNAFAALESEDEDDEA

[7] = biological target: T4, eIF4E (untagged, co-expressed with …); assay: MST; Buffer A: 10 mM sodium phosphate pH 7.5, 100 mM NaCl, 2.5 mM MgCl2, 1 mM DTT, 0.05% NP40; MST at 25 C (proteins for capped RNA MST RED-tris-NTA labeled in buffer B: 20 mM HEPES-KOH pH 7.5, 50 mM NaCl, 1 mM DTT); EMSA 1.5% agarose, 1x TBE, temperature not stated; conditions: protein: recombinant;recombinant; tags: ;N-terminal His6x; copies: 1;1; label: 3' FAM
[8] = biological target: T5, eIF4E (untagged, co-expressed with p20);His6x-p20 6x mutant (Saccharomyces cerevisiae;Saccharomyces …, UniProt P07260;P12962 1-213;1-161, |R55L;R56L;R57L;H60L;H61L;H62L); assay: as above; conditions: protein: recombinant;recombinant; tags: ;N-terminal His6x; copies: 1;1; label: 3' FAM
T5 sequence 1: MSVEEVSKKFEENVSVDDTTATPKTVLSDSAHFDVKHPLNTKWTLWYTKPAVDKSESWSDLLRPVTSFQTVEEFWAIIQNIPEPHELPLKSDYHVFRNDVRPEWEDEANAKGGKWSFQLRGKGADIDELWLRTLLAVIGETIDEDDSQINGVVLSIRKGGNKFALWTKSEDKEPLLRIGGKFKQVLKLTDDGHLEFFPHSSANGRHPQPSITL
T5 sequence 2: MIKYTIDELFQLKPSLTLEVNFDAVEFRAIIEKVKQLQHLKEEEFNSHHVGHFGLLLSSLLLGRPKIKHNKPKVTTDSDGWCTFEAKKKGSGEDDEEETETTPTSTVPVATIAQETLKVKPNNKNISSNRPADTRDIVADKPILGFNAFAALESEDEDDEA

Molecule	Kd [1]	Kd [2]	Kd [3]	Kd [4]	Kd [5]	Kd ([5]; control of the 6x mutant experiment)	Kd [6]	Kd [7]	Kd [8]
GGGAACAAAAGCUGGUAAUCAAGAAUUACAAGAAACAAAAAUUCAAGUAAAUAACAGAUAAUAC [capped SSA1 5'UTR RNA, 64 nt]	285 nM	64.9 nM	211 nM	424 nM	44.9 nM	46.9 nM			
GUAUUACAAGAAACAAAAAUUCAAGUAAAUAACAGAUAAU (ssRNA) [uncapped SSA1 5'UTR RNA, 40 nt]							8800 nM	6240 nM	35500 nM
